According to WO2011014457A1 (dated 2011):

T1: human Tyro-3Fc (human, UniProt Q06418 41-428, limits assumed)
T1 sequence (looked up): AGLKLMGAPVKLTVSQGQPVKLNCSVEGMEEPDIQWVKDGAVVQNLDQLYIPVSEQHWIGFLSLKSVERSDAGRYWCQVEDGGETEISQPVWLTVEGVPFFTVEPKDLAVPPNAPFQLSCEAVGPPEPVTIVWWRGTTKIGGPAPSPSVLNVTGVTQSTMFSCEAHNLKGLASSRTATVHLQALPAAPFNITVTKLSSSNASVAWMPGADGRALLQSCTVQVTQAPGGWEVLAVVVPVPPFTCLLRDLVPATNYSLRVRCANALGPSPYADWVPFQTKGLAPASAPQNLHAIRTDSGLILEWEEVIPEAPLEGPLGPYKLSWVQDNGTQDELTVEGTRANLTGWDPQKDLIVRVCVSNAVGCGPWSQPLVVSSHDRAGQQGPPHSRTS

T2: human MerFc (human, UniProt Q12866 21-499, limits assumed)
T2 sequence (looked up): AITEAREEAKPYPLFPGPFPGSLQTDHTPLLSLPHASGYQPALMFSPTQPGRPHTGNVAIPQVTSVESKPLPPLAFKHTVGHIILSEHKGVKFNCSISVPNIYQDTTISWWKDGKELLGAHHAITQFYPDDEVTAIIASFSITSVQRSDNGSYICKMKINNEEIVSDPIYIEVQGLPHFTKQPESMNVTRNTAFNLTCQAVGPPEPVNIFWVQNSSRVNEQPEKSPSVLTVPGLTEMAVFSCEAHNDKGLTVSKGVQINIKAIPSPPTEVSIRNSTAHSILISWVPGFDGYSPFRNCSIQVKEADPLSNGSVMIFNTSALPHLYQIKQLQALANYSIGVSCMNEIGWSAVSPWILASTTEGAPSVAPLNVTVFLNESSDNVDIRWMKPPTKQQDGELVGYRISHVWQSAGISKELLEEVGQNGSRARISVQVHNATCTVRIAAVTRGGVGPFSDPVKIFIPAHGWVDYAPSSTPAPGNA


Columns and labels:
human AxI ECD-His = target: T3, human AxI ECD-His (human, UniProt P30530 26-451); experiment: SPR (BIAcore-3000), IgG captured by anti-human IgG, human AxI ECD-His injected
T3 construct: extracellular domain; also called human AxI ECD-His protein; Hu AxI

human Tyro-3Fc = target: T1, human Tyro-3Fc; experiment: ELISA, Fc fusion captured on anti-human IgG Fc
human MerFc = target: T2, human MerFc; experiment: ELISA, Fc fusion captured on anti-human IgG Fc
[1] = target: T4, murine AxI ECD-Fc fusion protein (murine, UniProt Q00993 19-445); experiment: SPR (BIAcore-3000), murine AxI ECD-Fc captured by anti-human IgG, anti-Axl Fab fragment injected (per methods)
T4 construct: extracellular domain; also called murine AxIFc; mouse AxI.Fc
T4 sequence (Q00993 19-445): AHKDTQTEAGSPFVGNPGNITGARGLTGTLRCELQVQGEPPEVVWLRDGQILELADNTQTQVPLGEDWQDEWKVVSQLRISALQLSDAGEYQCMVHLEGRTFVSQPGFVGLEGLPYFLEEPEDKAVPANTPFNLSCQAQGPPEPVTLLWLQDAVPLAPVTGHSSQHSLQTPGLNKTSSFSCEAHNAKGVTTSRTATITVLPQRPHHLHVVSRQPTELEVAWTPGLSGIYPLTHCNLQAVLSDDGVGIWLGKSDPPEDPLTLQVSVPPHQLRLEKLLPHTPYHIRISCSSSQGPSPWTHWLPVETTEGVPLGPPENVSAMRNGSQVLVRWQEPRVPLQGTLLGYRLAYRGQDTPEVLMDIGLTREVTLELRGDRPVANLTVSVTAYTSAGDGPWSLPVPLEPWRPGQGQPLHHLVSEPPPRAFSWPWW

Kd (human AxI ECD-His)	binding result (human Tyro-3Fc)	binding result (human MerFc)	Kd [1]	Binder
~1 nM	no binding	no binding		YW327.6S2 (antibody, V domains shown, also called AxI mAb YW327.6S2) VH: EVQLVESGGGLVQPGGSLRLSCAASGFSLSGSWIHWVRQAPGKGLEWVGWINPYRGYAYYADSVKGRFTISADTSKNTAYLQMNSLRAEDTAVYYCAREYSGWGGSSVGYAMDYWGQGTLV VL: DIQMTQSPSSLSASVGDRVTITCRASQDVSTAVAWYQQKPGKAPKLLIYSASFLYSGVPSRFSGSGSGTDFTLTISSLQPEDFATYYCQQSYTTPPTFGQGTKVEIKR
			0.545 nM	YW327.6S2 Fab fragment (Fab, V domains shown, also called anti-Axl Fab fragment) VH: EVQLVESGGGLVQPGGSLRLSCAASGFSLSGSWIHWVRQAPGKGLEWVGWINPYRGYAYYADSVKGRFTISADTSKNTAYLQMNSLRAEDTAVYYCAREYSGWGGSSVGYAMDYWGQGTLV VL: DIQMTQSPSSLSASVGDRVTITCRASQDVSTAVAWYQQKPGKAPKLLIYSASFLYSGVPSRFSGSGSGTDFTLTISSLQPEDFATYYCQQSYTTPPTFGQGTKVEIKR
